Assay results: patent US20220056091A1 (BRIGHT PEAK THERAPEUTICS, published 2022)

T1: Fc fused human IL-18Rα (human, UniProt Q13478 19-329, limits assumed)
T1 construct: also called IL-18Rα monomer; IL-18 receptor alpha; not shown: Fc part
T1 sequence (looked up): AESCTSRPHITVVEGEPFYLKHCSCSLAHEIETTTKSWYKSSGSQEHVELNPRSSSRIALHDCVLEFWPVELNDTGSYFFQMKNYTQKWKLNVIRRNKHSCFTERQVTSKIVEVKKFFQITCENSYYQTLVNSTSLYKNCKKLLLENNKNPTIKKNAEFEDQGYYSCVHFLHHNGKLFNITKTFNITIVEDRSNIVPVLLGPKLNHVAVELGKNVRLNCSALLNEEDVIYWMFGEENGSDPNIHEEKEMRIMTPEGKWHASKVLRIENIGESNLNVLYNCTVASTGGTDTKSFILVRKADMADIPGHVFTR

T2: Fc fused human IL-18BP isoform a (IL-18BPa) (human, UniProt O95998 31-194)
T2 construct: also called IL-18BP monomer; not shown: Fc part
T2 sequence (looked up): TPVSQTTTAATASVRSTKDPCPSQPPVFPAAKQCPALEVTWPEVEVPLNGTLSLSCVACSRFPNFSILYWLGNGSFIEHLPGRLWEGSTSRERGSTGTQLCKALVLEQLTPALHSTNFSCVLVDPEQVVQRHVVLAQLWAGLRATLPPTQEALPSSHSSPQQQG

T3: IL-18Rα/β heterodimer (Fc fused human IL-18Rα mixed and pre-incubated with Fc fused human IL-18Rβ) (human, UniProt Q13478 19-329; O95256 20-356, limits assumed)
T3 construct: 6 µg/mL of each receptor mixed and pre-incubated 30 min before capture on anti-human IgG; also called alpha/beta heterodimer IL-18 receptor; not shown: Fc part
T3 sequence (looked up) 1: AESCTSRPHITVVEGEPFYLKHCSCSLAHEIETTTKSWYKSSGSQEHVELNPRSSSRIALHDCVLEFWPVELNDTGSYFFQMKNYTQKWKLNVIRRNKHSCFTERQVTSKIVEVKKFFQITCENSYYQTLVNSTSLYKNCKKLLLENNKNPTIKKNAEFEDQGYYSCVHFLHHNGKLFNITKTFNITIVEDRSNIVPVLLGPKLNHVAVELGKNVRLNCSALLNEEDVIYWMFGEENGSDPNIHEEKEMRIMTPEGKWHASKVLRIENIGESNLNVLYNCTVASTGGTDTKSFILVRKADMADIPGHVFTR
T3 sequence (looked up) 2: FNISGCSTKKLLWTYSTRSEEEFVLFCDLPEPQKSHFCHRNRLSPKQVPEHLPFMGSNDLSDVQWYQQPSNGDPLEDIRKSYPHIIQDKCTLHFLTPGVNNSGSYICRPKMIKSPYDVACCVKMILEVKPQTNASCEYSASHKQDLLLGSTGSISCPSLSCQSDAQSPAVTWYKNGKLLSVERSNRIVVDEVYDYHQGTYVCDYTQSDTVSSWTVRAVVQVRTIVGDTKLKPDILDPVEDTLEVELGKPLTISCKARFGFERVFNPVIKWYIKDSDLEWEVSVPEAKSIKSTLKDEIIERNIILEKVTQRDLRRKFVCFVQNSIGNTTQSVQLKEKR


Legend:
Fc fused human IL-18Rα = biological target: T1, Fc fused human IL-18Rα; assay: SPR, Fc-IL-18Rα captured, 1:1 model
Description: (§1) The interaction of the wild type and of modified IL-18 polypeptides with human IL-18 receptor subunits were measured with Surface Plasmon Resonance (SPR) technology. Anti-human IgG antibodies were bound by amine coupling onto a CM5 chip to capture 6 μg/mL of Fc fused human IL-18Rα, 6 μg/mL of Fc fused human IL-18Rβ, or 2 μg/mL of Fc fused human IL-18BP isoform a (IL-18BPa) for 30 min before capture. In other settings, 6 μg/mL of alpha and beta IL-18 receptors were mixed and pre-incubated for 30 min before capture of the alpha/beta heterodimer IL-18 receptor.
(§2) The kinetic binding of the IL-18 analytes were measured with a Biacore 8K instrument in two-fold serial dilutions starting at 1 μM down to 0.98 nM. Regeneration of the surface back to amine coupled anti IgG antibody was done after every concentration of analyte. To measure the protein association to the receptors, the samples were injected with a flow rate of 50 μL/min for 60 s, followed by 300 s buffer only to detect the dissociation. The used running buffer was 1×PBS with 0.05% Tween20. The relative response units (RU, Y-axis) are plotted against time (s, X-axis) and analyzed in a kinetic 1:1 binding model for the monomer receptor binding and for the binding to the IL-18BP. A kinetic heterogenous ligand fit model was applied for the alpha/beta heterodimer binding.
Modified IL-18 polypeptides having sequence modifications E06K, K53A, S55A, and T63A maintained binding affinity to IL-18Rα.

[1] = biological target: T2, Fc fused human IL-18BP isoform a …; assay: SPR, Fc-IL-18BPa captured, 1:1 model
Description: as §1, §2
Modified IL-18 polypeptides bearing sequence modifications K53A, S55A, E06K, C38S, C68S, C76S, C127S, and/or K70C maintained binding affinity to IL-18BP.

[2] = biological target: IL-18R on HEK-Blue IL18R reporter cells (InvivoGen, #hkb-hmil18); assay: cell-based or functional assay
[3] = biological target: T3, IL-18Rα/β heterodimer (Fc fused human …); assay: SPR, Fc-IL-18Rα/Fc-IL-18Rβ mix captured, heterogeneous ligand model
Description: as §1, §2
Modified IL-18 polypeptides bearing sequence modifications E06K, K53A, S55A, and T63A maintained binding affinity to IL-18Rα/β heterodimer.

| Binder | Kd (Fc fused human IL-18Rα) [nM] | koff (Fc fused human IL-18Rα) [s⁻¹] | kon (Fc fused human IL-18Rα) [M⁻¹ s⁻¹] | Kd [1] [nM] | koff [1] [s⁻¹] | kon [1] [M⁻¹ s⁻¹] | EC50 (pM), HEK-Blue IL18R reporter assay [2] [pM] | Potency loss Mutant/NWT, HEK-Blue IL18R reporter assay [2] [fold] | Kd [3] [nM] | koff [3] [s⁻¹] | kon [3] [M⁻¹ s⁻¹] |
| --- | --- | --- | --- | --- | --- | --- | --- | --- | --- | --- | --- |
| Modified IL-18 polypeptide of SEQ ID NO: 10 (E06K, K53A, S55A, T63A) (ligand) YFGKLKSKLSVIRNLNDQVLFIDQGNRPLFEDMTDSDCRDNAPRTIFIISMYADAQPRGMAVAISVKCEKISTLSCENKIISFKEMNPPDNIKDTKSDIIFFQRSVPGHDNKMQFESSSYEGYFLACEKERDLFKLILKKEDELGDRSIMFTVQNED | 147 | 0.0496 | 337000 | 49 | 0.0181 | 370000 | 0.79 | 0.24 | 132 | 0.054 | 409000 |
| Modified IL-18 polypeptide of SEQ ID NO: 71 (E6K, C38S, K53A) (ligand) YFGKLKSKLSVIRNLNDQVLFIDQGNRPLFEDMTDSDSRDNAPRTIFIISMYADSQPRGMAVTISVKCEKISTLSCENKIISFKEMNPPDNIKDTKSDIIFFQRSVPGHDNKMQFESSSYEGYFLACEKERDLFKLILKKEDELGDRSIMFTVQNED | 72.4 | 0.0151 | 208000 | 2.72 | 0.0031 | 1.14e+06 | 0.86 | 0.26 | 2.92 | 0.0008 | 279000 |
| Modified IL-18 polypeptide of SEQ ID NO: 17 (E06K, K53A, S55A, C38S, C68S, C76S, C127S, K70C) (ligand) YFGKLKSKLSVIRNLNDQVLFIDQGNRPLFEDMTDSDSRDNAPRTIFIISMYADAQPRGMAVTISVKSECISTLSSENKIISFKEMNPPDNIKDTKSDIIFFQRSVPGHDNKMQFESSSYEGYFLASEKERDLFKLILKKEDELGDRSIMFTVQNED | > 1000 | – | – | – | – | – | – | – | > 1000 | – | – |
| Modified IL-18 polypeptide of SEQ ID NO: 23 (K53A, T63A, C38S, C68S, C76S, C127S, K70C) (ligand) YFGKLESKLSVIRNLNDQVLFIDQGNRPLFEDMTDSDSRDNAPRTIFIISMYADSQPRGMAVAISVKSECISTLSSENKIISFKEMNPPDNIKDTKSDIIFFQRSVPGHDNKMQFESSSYEGYFLASEKERDLFKLILKKEDELGDRSIMFTVQNED | > 1000 | – | – | 52.8 | 0.00118 | 22400 | – | – | > 1000 | – | – |
| Modified IL-18 polypeptide of SEQ ID NO: 13 (E06K, K53A, S55A, D54A) (ligand) YFGKLKSKLSVIRNLNDQVLFIDQGNRPLFEDMTDSDCRDNAPRTIFIISMYAAAQPRGMAVTISVKCEKISTLSCENKIISFKEMNPPDNIKDTKSDIIFFQRSVPGHDNKMQFESSSYEGYFLACEKERDLFKLILKKEDELGDRSIMFTVQNED | > 1000 | – | – | > 1000 | – | – | – | – | > 1000 | – | – |
| Modified IL-18 polypeptide of SEQ ID NO: 16 (C38S, C68S, C76S, C127S, K70C) (ligand) YFGKLESKLSVIRNLNDQVLFIDQGNRPLFEDMTDSDSRDNAPRTIFIISMYKDSQPRGMAVTISVKSECISTLSSENKIISFKEMNPPDNIKDTKSDIIFFQRSVPGHDNKMQFESSSYEGYFLASEKERDLFKLILKKEDELGDRSIMFTVQNED | 304 | 0.0158 | 51900 | 0.374 | 0.000265 | 708000 | – | – | 200 | 0.0317 | 159000 |
| Modified IL-18 polypeptide of SEQ ID NO: 70 (E6K, K53A, C38S, C76S, C127S) (ligand) YFGKLKSKLSVIRNLNDQVLFIDQGNRPLFEDMTDSDSRDNAPRTIFIISMYADSQPRGMAVTISVKCEKISTLSSENKIISFKEMNPPDNIKDTKSDIIFFQRSVPGHDNKMQFESSSYEGYFLASEKERDLFKLILKKEDELGDRSIMFTVQNED | 379 | 0.0369 | 92600 | 29.1 | 0.0037 | 128000 | 3.73 | 1.11 | 13.2 | 0.0006 | 43600 |
